The supplement of paper PMC10567573

B1: TPD52L2 (parent)
chain: EAEEEELRAELTKVEEEIVTLRQV
B2: SFRS1 (parent)
chain: YSPRRSRGSPRYSPRHSRSRSRT

Variants of: B1
Assay: protein stability index of a GFP-peptide fusion (GPS, HEK-293T) (PSI 1-6); higher = more stable
Details: c terminus: a fixed tail appended
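Note: lentivirally expressed fusions sorted by FACS into six bins by GFP to DsRed ratio, PSI derived from sequencing read proportions per bin multiplied by bin number.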

Protein stability index, by site and new letter:
E4: N 4.34, I 3.73, Q 4.02, L 3.81, H 3.21, A 3.77, V 3.63, D 3.89, Y 2.25, C 2.93, S 3.41, W 2.93, P 3.68, R 3.76, T 3.75, G 3.23, M 3.42, K 4.13, F 2.79
E5: W 2.42, V 1.62, I 2.98, K 2.75, F 2.34, M 2.48, R 2.89, P 4.18, A 2.3, L 2.64, T 2.71, H 2.44, S 2.35, Y 3.06, N 2.28, C 2.46, G 2.97, Q 3.35, D 3.91
E3: T 2.83, W 3.43, K 3.18, R 3.04, S 3.63, M 2.71, Q 2.73, H 3.08, P 2.92, D 4.29, Y 2.86, L 2.76, G 3.52, F 2.45, V 3.22, N 3.1, I 2.79, A 3.04, C 2.65
E6: R 3.23, T 3.58, W 2.62, A 3.06, Y 3.08, V 3.81, P 4.32, Q 3.46, D 2.98, S 3.12, F 2.68, I 3.62, K 3, L 2.8, H 2.91, N 3.15, G 2.73, C 2.51, M 2.08
E1: K 3.06, D 3.74, H 3.07, S 2.97, V 3.58, R 2.63, G 3.02, P 3.43, L 2.57, Q 3.76, M 2.53, I 1.94, C 2.89, Y 3.35, T 2.79, W 2.01, N 2.5, A 3.63, F 2
A2: Q 4.57, K 3.04, S 3.42, D 4.7, E 4.6, P 4.03, H 3.23, F 3.45, N 4.25, Y 3.1, L 2.93, R 3.29, M 2.8, C 3.17, W 2.88, V 3.3, I 2.67, G 4.06, T 2.8
L7: A 5.44, D 5.5, G 5.14, F 5.23, C 4.93, E 5.74

Variants of: B2
Assay: as above
Details: c terminus: native

Protein stability index: each site, then its substitutions
R15: G 3.9, P 2.12, L 3, E 3.56, K 3.98, V 2.65, Y 3.06, S 3.82, I 3.05, H 4.39, N 3.34, C 2.64, A 3.36, Q 3.39, F 2.17, T 2.58, D 3.16, M 3.48
S17: C 4, F 4.13, V 3.73, I 4.04, A 4.15, L 3.69, T 4.05, G 3.53, N 3.81, W 3.69, M 4.06, D 3.75, P 4.19, E 3.9, Q 4, K 4.35, Y 3.6, H 3.77, R 4.49
P14: W 3.22, G 4.46, R 4.48, F 3.21, D 3.46, M 3.52, S 3.54, T 3.89, E 4.04, K 4.57, Y 3.64, C 1.97, L 3.56, A 4.03, H 4.16, I 4.15, V 4.03, N 4.28
Y12: Q 4.43, W 4.43, M 3.62, P 3.99, S 4.17, N 4.21, T 4.27, R 4.25, V 4.18
S19: F 3.75, K 3.88, D 3.75, C 3.71, R 3.55, H 3.89, W 3.76, A 2.98, L 3.79, N 4.23, T 3.68, V 3.73, M 2.9, E 3.14, P 4.39, Y 3.96, I 3.8, G 3.95, Q 3.89
S13: I 3.71, V 3.37, C 1.35, K 4.64, D 3.72, L 3.89, Y 3.13, R 4.11, G 4.41, E 4.01, T 3.63, M 3.82, P 3.55, F 3.59, W 2.9, H 3.62, A 3.41, Q 3.76, N 3.64
S21: P 4.3, T 3.34, K 3.79, L 3.23, Y 4, F 3.95, M 3.94, E 3.8, Q 3.62, I 3.28, G 2.67, H 3.79, V 3.49, D 3.79, C 3.06, W 4.19, A 3.41, N 3.98, R 4.2
T23: P 4.23, C 3.5, M 3.33, S 3.4, H 2.64, D 3.32, E 4.56, W 3.79, N 3.17, V 3.69, Q 2.61, Y 4.44, I 4.04, K 4.73, L 1.96, F 4.22, R 4.22
R20: P 3.81, N 4.44, C 3.49, H 4.12, F 2.71, L 4.08, D 4.36, E 4.48, S 4.21, Q 4.04, W 1.77, Y 2.9, G 3.79, V 3.66, T 3.6, I 3.69, M 3.4, A 3.68, K 3.85
R22: F 3.58, N 3.46, V 4.05, E 4.25, L 4.25, A 2.02, I 3.8, K 3.77, S 3.5, P 4.04, C 3.62, T 3.97, D 3.85, W 3.32, G 3.27, M 3.8, H 4.14, Y 3.9, Q 4.06
R18: Q 3.27, T 3.46, M 2.87, W 2.93, S 2.9, L 3.44, V 3.68, P 2.52, K 2.94, I 3.43, G 3.27, E 2.44, N 3.5, Y 3.07, A 3.64, D 2.77, F 2.42, H 3.28, C 2.61
H16: Q 4.02, S 4.5, N 4.1, I 3.95, M 3.95, C 3.96, A 4.81, W 3.14, L 4.35, Y 4.45, R 4.5, K 4.35, V 3.93, F 3.83, G 4.31, D 4.05, E 3.47, T 4.27, P 4.35
